Molecular target: Cy3-labeled human histone nucleosome core particle reconstituted on the Widom 601 sequence (human) (UniProt P62807)
Assay: single-molecule fluorescence imaging on optical tweezers

- lifetime: 24 s
Substance: HaloTag-635-LIG3α (wild type, nuclear DNA ligase IIIα) (enzyme)

Reference: article PMC12748704
